One substance from US20050261190A1 can be followed below.

For this assay, the target named is multiubiquitinated proteins (of HEK293T cells). Kind of assay: cell-based or functional assay.

Sequence of Flag-tagged hFAF1 (human Fas associated factor 1, full form) (Q9UNN5 other isoform, or with tags, fused parts or gaps): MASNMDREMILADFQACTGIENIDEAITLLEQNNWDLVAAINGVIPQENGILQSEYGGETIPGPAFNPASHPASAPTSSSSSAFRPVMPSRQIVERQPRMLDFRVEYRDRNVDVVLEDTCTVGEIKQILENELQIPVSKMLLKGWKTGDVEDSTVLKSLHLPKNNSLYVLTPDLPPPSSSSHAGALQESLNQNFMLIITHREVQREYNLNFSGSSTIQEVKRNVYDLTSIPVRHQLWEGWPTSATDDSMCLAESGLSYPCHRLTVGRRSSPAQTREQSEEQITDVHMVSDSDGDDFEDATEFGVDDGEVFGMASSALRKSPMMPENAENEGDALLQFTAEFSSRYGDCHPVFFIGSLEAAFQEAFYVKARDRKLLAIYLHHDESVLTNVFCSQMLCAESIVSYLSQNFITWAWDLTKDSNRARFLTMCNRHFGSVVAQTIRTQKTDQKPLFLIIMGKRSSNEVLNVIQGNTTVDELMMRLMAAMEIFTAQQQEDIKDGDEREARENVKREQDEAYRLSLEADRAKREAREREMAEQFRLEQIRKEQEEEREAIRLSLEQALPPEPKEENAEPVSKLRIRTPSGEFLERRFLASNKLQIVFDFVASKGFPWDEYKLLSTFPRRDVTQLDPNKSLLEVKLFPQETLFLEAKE

Substance “Flag-tagged hFAF1 (human Fas associated factor 1, full form) (from UniProt Q9UNN5 1-650)” came in with a mean fluorescence intensity of the Ub^G76V-GFP reporter (flow cytometry) of 2 fold.
